{"source": "patent US20220396612A1", "about": "(UNIVERSIT DE TOURS, published 2022)", "binders": {"B1": {"name": "monoclonal antibody ‘18A2’ derived from hybridoma 18A2 (antibody, V domains shown)", "VH": "DVQLQESGPGLVKPSQSLSLTCSVTGYSITSGYYWNWIRQFPGNKLEWMGYISYDGSNNYNPSLKNRISITRDTSKNQFFLKLNSVTTEDTATYYCARWEGTTDYWGQGTTLTVSS", "VL": "not shown", "notes": "Mouse hybridoma antibody"}}, "assay_in_all_cases": "ELISA on denatured VLP (carbonate pH 10.6 + DTT; threshold OD>0.5)", "key": {"[1]": {"target": "T1, denatured VLPs of BK polyomavirus VP-1 protein, serotype Ia (BK virus (BKPyV), serotype Ia, UniProt P03088 1-361)", "T1 construct": "also called Ia denatured; linearised VP-1 protein", "T1 chain": "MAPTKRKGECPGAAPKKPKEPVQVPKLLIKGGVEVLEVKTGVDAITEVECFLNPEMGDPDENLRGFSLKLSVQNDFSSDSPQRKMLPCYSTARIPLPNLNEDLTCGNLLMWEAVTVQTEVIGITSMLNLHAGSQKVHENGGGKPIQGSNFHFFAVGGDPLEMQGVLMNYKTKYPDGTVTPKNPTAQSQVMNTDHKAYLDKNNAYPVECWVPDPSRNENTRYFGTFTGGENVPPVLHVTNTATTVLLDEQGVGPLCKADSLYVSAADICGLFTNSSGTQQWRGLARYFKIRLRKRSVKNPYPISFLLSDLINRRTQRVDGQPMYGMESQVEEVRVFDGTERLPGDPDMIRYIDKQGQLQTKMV", "experimental": "(§1) The wells were then blocked for 1 hour at +37° C. with a PBS/SVF mixture. After dilution in a dilution buffer containing SVF, PBS and Tween® 20, the individual culture supernatants or purified antibodies were added for 1 hour at +37° C. The wells were washed four times in a row with Wash Buffer and a secondary anti-mouse peroxidase antibody was added to the 1/2000 dilution for 1 hour at +37° C. The wells were washed again four times in a row and the substrate was added for 30 minutes at room temperature. A stop solution was added and then each well was read by measuring the absorbance at 492 nm with a spectrophotometer. The value obtained for the average of the control wells (PBS in the first step) was subtracted from the optical density values obtained for each well (detection threshold: OD>0.5)."}, "[2]": {"target": "T2, denatured VLPs of BK polyomavirus VP-1 protein, serotype Ib2 (BK virus (BKPyV), serotype Ib2, UniProt P03088 1-362)", "T2 construct": "also called Ib2 denatured", "T2 chain": "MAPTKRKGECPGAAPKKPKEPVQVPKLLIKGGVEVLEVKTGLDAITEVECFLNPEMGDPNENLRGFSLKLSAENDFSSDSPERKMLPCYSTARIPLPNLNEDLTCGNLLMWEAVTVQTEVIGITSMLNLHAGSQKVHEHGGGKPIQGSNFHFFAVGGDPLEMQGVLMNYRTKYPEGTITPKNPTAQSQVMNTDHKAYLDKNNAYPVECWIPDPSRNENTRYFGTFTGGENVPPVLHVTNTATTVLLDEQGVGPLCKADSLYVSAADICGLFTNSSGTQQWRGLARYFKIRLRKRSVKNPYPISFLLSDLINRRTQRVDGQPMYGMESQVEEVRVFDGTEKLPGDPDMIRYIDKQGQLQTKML", "experimental": "as §1"}, "[3]": {"target": "T3, denatured VLPs of BK polyomavirus VP-1 protein, serotype II (BK virus (BKPyV), serotype II, UniProt P14996 1-362)", "T3 construct": "also called II denatured", "T3 chain": "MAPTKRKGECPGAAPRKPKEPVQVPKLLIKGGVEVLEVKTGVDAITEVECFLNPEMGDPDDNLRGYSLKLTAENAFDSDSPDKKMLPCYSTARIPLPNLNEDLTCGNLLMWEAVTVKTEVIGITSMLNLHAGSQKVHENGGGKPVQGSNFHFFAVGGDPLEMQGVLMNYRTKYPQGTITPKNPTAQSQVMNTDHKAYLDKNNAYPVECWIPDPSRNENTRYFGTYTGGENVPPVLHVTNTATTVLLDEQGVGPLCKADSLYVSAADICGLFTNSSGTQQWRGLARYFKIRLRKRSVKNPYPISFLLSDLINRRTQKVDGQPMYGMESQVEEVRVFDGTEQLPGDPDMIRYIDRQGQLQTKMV", "experimental": "as §1"}, "[4]": {"target": "T4, denatured VLPs of BK polyomavirus VP-1 protein, serotype IV (BK virus (BKPyV), serotype IV, UniProt P14996 1-362)", "T4 construct": "also called IV denatured", "T4 chain": "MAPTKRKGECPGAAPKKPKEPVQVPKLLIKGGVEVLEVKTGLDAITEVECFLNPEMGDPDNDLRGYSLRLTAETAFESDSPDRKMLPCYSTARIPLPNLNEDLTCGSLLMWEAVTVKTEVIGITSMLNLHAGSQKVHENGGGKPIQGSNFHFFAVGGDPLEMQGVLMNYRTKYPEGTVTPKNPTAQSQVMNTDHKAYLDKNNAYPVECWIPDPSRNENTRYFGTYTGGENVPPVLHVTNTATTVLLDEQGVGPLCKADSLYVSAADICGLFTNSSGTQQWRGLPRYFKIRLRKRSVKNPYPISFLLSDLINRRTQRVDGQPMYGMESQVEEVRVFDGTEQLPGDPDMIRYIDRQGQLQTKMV", "experimental": "as §1"}}}
{"binder": "B1", "values": [{"measurement": "OD 492 nm", "setting": "[1]", "result": 3.98, "unit": "OD"}, {"measurement": "OD 492 nm", "setting": "[2]", "result": 0.16, "unit": "OD"}, {"measurement": "OD 492 nm", "setting": "[3]", "result": 0.63, "unit": "OD"}, {"measurement": "OD 492 nm", "setting": "[4]", "result": 0.709, "unit": "OD"}]}
